Measured values: paper PMC4975591

Target: T1, Full-length cysteine string protein CSP(1-198), Q9H3Z4
T1 chain: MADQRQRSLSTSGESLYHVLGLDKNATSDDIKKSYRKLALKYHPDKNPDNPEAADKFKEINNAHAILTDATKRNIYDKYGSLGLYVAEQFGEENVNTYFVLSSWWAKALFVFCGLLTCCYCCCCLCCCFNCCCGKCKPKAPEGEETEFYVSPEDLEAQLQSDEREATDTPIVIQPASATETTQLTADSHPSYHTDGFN
Test: AUC; sedimentation velocity, 50,000 rpm, 20.1°C, 9 hr, absorbance at 279 nm; self-association of purified recombinant protein
Settings: remark: other sources report otherwise

B1: Full-length cysteine string protein CSP(1-198), Q9H3Z4 1-198 (natural protein)
chain: T1 chain
A stoichiometry N of over 10 subunits was found for B1 in this work.
